The target in experiment [1] is murine IL-6 receptor (murine) (UniProt P22272).
The target of experiment [2] is recombinant human IL-6 (human).

Experimental findings from patent publication US6264958 are described below.

“functionally neutralizing monoclonal antibody directed against the murine IL-6R (D7715A7, Pharmigen)”: in experiment [1], the % Inhibition of B9 cell proliferation driven by 10 pg/ml hIL-6 (MTT, Absorbance570) came to 80 % inhibition and the % Inhibition of B9 cell proliferation driven by 1:40 vIL-6 sup (MTT, Absorbance570) was 53.8 % inhibition.
On to “monoclonal antibody directed against murine IL-2 (S4B6, Pharmigen)”, for which the % Inhibition of B9 cell proliferation driven by 10 pg/ml hIL-6 (MTT, Absorbance570) in experiment [2] worked out at 23.4 % inhibition.
